Measured values: patent US7575910B2, “Method for producing L-fuculose and method for producing L-fucose” (priority 2004, dated 2009)

How the values were obtained:
[1] = molecular target: T1, FcDH (L-fuculose-producing L-fucitol dehydrogenase) (Gluconobacter thailandicus, UniProt A0ABQ0IZX0); test: Substrate specificity of purified FcDH (kcat, Km by Lineweaver-Burk plot); type: biochemical, Gluconobacter oxydans IFO 3255; settings: FIG. 12
T1 sequence (A0ABQ0IZX0 1-257): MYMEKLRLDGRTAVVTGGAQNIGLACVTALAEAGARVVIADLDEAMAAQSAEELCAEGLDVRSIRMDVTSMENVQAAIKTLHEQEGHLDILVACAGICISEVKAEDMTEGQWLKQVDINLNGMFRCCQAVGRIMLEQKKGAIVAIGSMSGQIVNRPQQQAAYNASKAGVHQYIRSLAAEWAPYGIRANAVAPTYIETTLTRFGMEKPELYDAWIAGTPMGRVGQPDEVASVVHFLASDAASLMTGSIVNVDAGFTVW
Method: (§1) The measurement was started when NAD was added. […] The measurement was performed consecutively three times.
(§2) Values of kcat and Km for each substrate were obtained by measuring the initial rate of the reaction with various substrate concentrations and drawing a Lineweaver-Burk plot of the results.
(§3) Lineweaver-Burk plots of the results in (A) and (B) are shown in FIG. 12 (C) and (D), respectively. The Km and kcat values were calculated from the range in which substrate inhibition was not observed, i.e., from a straight line represented by a broken line in FIG. 12 (C) and (D).

FcDH [2] = molecular target: T2, FcDH (Gluconobacter thailandicus, UniProt A0ABQ0IZX0); test: Oxidation products of substrates by purified FcDH, HPLC; type: biochemical, Gluconobacter oxydans IFO 3255; settings: 0.5 g/dl substrate, NOX, catalase, 30° C., 16 hours
Method: Among the substrates recognized by FcDH, the oxidation product of L-fucitol is L-fuculose, and the oxidation products of the other substrates were examined. The substrates used were D-arabitol, D-mannitol and D-sorbitol. A reaction solution containing 0.5 g/dl of the substrate, 50 mM Gly-NaOH (pH 9.5), 1 mM NAD, 30 mM FAD, 5 mM MgCl2, 0.6 U/ml purified FcDH, 0.2 U/ml NOX, and 0.1 mg/ml catalase was reacted at 30° C. for 16 hours, and analyzed by HPLC (FIG. 13).

FcDH [3] = molecular target: T2, FcDH; test: NAD and NADP specificity of FcDH; type: biochemical, Gluconobacter oxydans IFO 3255; settings: data not shown
Method: The measurement was started when NAD was added. The change in absorbance in the first minute was taken as the initial rate, and the activity was calculated therefrom. […] The measurement was performed consecutively three times. Their mean value was taken and is shown in the figure with the standard deviation.
Since FcDH uses NAD as a coenzyme, the availability of NAD and NADP was measured. The activity was measured by adding NAD or NADP at various concentrations under standard conditions. The Km value for each coenzyme was calculated by drawing a Lineweaver-Burk plot of the results (FIG. 14 (B)).

NOX (NADH oxidase) = NOX (NADH oxidase) (Gluconobacter thailandicus, UniProt A0ABQ0IUG6); test: NOX activity: NADH/NADPH and flavin coenzyme specificity; type: biochemical, Gluconobacter oxydans IFO 3255; settings: flavin 0 to 300 μM, FIG. 19
Chain of NOX (NADH oxidase) (A0ABQ0IUG6 entry or part of it): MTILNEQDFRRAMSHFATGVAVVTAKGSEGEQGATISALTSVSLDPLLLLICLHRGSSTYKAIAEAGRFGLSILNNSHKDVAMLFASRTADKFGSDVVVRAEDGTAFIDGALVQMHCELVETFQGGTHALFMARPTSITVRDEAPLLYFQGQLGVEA
Method: The change in absorbance in the first minute was taken as an initial rate, and the activity was calculated therefrom. The experimental group without the enzyme source was used as a blank. […] The measurement was taken three consecutive times. Their mean value was taken and is shown in the figure with the standard deviation.
The concentration of flavin in the reaction solution was 0 to 300 μM, and the others were adjusted to standard conditions.
The Km value for the substrate was calculated by measuring the activity with a variety of substrate concentrations and drawing a Lineweaver-Burk plot of the results.

[4] = test system: NADH oxidase activity in cell free extract of G. oxydans IFO 3255 sldA:Kmr mutant strain; test: NADH oxidation activity in acetobacterium cell-free extract; type: biochemical, Gluconobacter oxydans IFO 3255 sldA:Kmr; settings: pH 8.0, 0.03 mM FAD
From the text: The group without the extract was used as a control.

[5] = substrate: NC(=O)c1ccc[n+]([C@@H]2O[C@H](COP(=O)([O-])OP(=O)(O)OC[C@H]3O[C@@H](n4cnc5c(N)ncnc54)[C@H](O)[C@@H]3O)[C@@H](O)[C@H]2O)c1; test: NAD and NADP specificity of FcDH; type: biochemical, Gluconobacter oxydans IFO 3255; settings: other: FcDH, Lineweaver-Burk plot, FIG. 14; pH 9.5; 30.0 °C
[6] = substrate: C[C@H](O)[C@@H](O)[C@@H](O)[C@H](O)CO; test: purified protein, by the assay type; settings: other: purified FcDH, substrate; Lineweaver-Burk plot; pH 9.5; 30.0 °C
[7] = substrate: OC[C@@H](O)C(O)[C@H](O)CO; test: purified protein, by the assay type; settings: other: purified FcDH, substrate; Lineweaver-Burk plot; pH 9.5; 30.0 °C
[8] = substrate: OC[C@@H](O)[C@@H](O)[C@@H](O)CO; test: purified protein, by the assay type; settings: other: purified FcDH, substrate; Lineweaver-Burk plot; pH 9.5; 30.0 °C
[9] = substrate: OC[C@@H](O)[C@H](O)[C@@H](O)CO; test: purified protein, by the assay type; settings: other: purified FcDH, substrate; Lineweaver-Burk plot; pH 9.5; 30.0 °C
[10] = substrate: OC[C@@H](O)[C@@H](O)[C@H](O)[C@@H](O)CO; test: Substrate specificity of purified FcDH (kcat, Km by Lineweaver-Burk plot); type: biochemical, Gluconobacter oxydans IFO 3255; settings: other: purified FcDH, pH 9.5, 30.0 °C
Method: as §1, §2, §3

[11] = substrate: OC[C@@H](O)[C@@H](O)[C@H](O)[C@H](O)CO; test: as above; type: biochemical, Gluconobacter oxydans IFO 3255; settings: other: purified FcDH, pH 9.5, 30.0 °C
Method: as §1, §2, §3

[12] = substrate: OC[C@@H](O)[C@H](O)[C@H](O)[C@@H](O)CO; test: as above; type: biochemical, Gluconobacter oxydans IFO 3255; settings: other: purified FcDH, pH 9.5, 30.0 °C
Method: as §1, §2, §3

## OC[C@@H](O)C(O)[C@H](O)CO [D-ARABITOL, D-arabitol]
[1]
  substrate concentration at which a reduction of the specific activity (inhibition by the substrate) was observed: ≥ 5 mM
FcDH [2]
  oxidation product identified by HPLC: D-ribulose and D-xylulose

## NC(=O)c1ccc[n+]([C@H]2O[C@@H](COP(=O)([O-])OP(=O)(O)OC[C@H]3O[C@@H](n4cnc5c(N)ncnc54)[C@H](OP(=O)(O)O)[C@@H]3O)[C@H](O)[C@@H]2O)c1 [NADP]
FcDH [3]
  FcDH activity with NADP as the coenzyme: no significant activity

## OC[C@@H](O)[C@@H](O)[C@H](O)[C@H](O)CO [D-MANNITOL, D-mannitol]
FcDH [2]
  oxidation product identified by HPLC: D-fructose

## Cc1cc2nc3c(=O)[nH]c(=O)nc-3n(C[C@H](O)[C@H](O)[C@H](O)COP(=O)(O)OP(=O)(O)OC[C@H]3O[C@@H](n4cnc5c(N)ncnc54)[C@H](O)[C@@H]3O)c2cc1C [FAD]
NOX (NADH oxidase)
  NOX activation effect of flavin coenzyme: NOX activation effect was observed
[4]
  effect of FAD addition on NADH oxidation activity: facilitated this activity

## OC[C@@H](O)[C@@H](O)[C@H](O)[C@@H](O)CO [D-SORBITOL, D-sorbitol]
FcDH [2]
  oxidation product identified by HPLC: L-sorbose

B1: FcDH (Gluconobacter thailandicus NBRC 3257) (protein)
chain: MYMEKLRLDGRTAVVTGGAQNIGLACVTALAEAGARVVIADLDEAMAAQSAEELCAEGLDVRSIRMDVTSMENVQAAIKTLHEQEGHLDILVACAGICISEVKAEDMTEGQWLKQVDINLNGMFRCCQAVGRIMLEQKKGAIVAIGSMSGQIVNRPQQQAAYNASKAGVHQYIRSLAAEWAPYGIRANAVAPTYIETTLTRFGMEKPELYDAWIAGTPMGRVGQPDEVASVVHFLASDAASLMTGSIVNVDAGFTVW
[5]
  Km: 0.20 mM

B2: FcDH (L-fuculose-producing L-fucitol dehydrogenase) (Gluconobacter thailandicus NBRC 3257) (protein)
chain: MYMEKLRLDGRTAVVTGGAQNIGLACVTALAEAGARVVIADLDEAMAAQSAEELCAEGLDVRSIRMDVTSMENVQAAIKTLHEQEGHLDILVACAGICISEVKAEDMTEGQWLKQVDINLNGMFRCCQAVGRIMLEQKKGAIVAIGSMSGQIVNRPQQQAAYNASKAGVHQYIRSLAAEWAPYGIRANAVAPTYIETTLTRFGMEKPELYDAWIAGTPMGRVGQPDEVASVVHFLASDAASLMTGSIVNVDAGFTVW
[6]
  Km: 31.9 mM
[7]
  Km: 1.3 mM
[8]
  Km: 20.4 mM
[9]
  Km: 31.9 mM
[10]
  Km: 22.4 mM
[11]
  Km: 30.2 mM
[12]
  Km: 30.5 mM
